Test results published in patent US20240190956A1 (IMMUNOGEN, published 2024).
One block for each binder: values may come before it.

Legend:
[1] = biological target: T1, folate receptor alpha (FR-α) (human, UniProt P15328 25-234); test: FACS on T47D cells
T1 construct: whole, on cells; also called FOLR1; human folate receptor 1
Protocol: T47D cells were then resuspended in growth media (see above) to neutralize trypsin, and were counted on a Coulter counter. Cells were then washed twice in cold FACS buffer, centrifuging in between washes at 1200 rpm for 5 min.
About 100 μl/mL of 2×10⁴ cells/well were added to wells containing ADC, antibody or FACS buffer only, and incubated at 4° C. for 2 hr. After incubation, cells were centrifuged as before and washed once in 200 μL/well cold FACS buffer. Cells were then stained with 200 μL/well FITC-conjugated Goat Anti-Human-IgG-Fcγ secondary antibody (controls included were unstained cells and those stained with secondary antibody only) for 40 min at 4° C., centrifuged and washed once in 200 μL/well cold PBS-D. Cells were fixed in 200 μL/well 1% formaldehyde/PBS-D and stored at 4° C.
After storage, cellular surface staining of conjugate or antibody was detected using flow cytometry on a FACS Calibur (BD Biosciences). The geometric means were plotted against the log concentration of ADC or antibody using GraphPad Prism and the EC₅₀ was calculated via non-linear 4-parameter logistic regression analysis.

[2] = biological target: T1, folate receptor alpha (FR-α); test: cell-based or functional assay
[3] = biological target: CD123 (UniProt P26951 19-378, limits assumed); test: cell-based or functional assay
Chain of CD123 (P26951 19-378 limits assumed): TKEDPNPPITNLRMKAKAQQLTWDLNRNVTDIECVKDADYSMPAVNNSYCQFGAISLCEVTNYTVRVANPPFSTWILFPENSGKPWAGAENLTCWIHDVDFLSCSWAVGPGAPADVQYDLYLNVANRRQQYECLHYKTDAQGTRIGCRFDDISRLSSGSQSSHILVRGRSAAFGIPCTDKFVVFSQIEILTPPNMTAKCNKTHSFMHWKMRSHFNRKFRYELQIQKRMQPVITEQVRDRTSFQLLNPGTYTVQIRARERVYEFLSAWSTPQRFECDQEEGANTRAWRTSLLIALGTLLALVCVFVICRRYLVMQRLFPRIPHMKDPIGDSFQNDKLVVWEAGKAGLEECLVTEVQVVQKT

T1 sequence (P15328 25-234): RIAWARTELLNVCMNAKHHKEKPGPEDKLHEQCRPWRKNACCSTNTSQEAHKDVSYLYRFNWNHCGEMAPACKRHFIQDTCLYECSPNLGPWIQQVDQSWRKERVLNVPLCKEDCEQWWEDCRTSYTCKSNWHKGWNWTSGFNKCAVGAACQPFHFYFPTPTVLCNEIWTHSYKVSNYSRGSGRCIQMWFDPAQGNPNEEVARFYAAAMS

B3: huMOV19-NTS #2-Linker1-Compound A (antibody)
heavy: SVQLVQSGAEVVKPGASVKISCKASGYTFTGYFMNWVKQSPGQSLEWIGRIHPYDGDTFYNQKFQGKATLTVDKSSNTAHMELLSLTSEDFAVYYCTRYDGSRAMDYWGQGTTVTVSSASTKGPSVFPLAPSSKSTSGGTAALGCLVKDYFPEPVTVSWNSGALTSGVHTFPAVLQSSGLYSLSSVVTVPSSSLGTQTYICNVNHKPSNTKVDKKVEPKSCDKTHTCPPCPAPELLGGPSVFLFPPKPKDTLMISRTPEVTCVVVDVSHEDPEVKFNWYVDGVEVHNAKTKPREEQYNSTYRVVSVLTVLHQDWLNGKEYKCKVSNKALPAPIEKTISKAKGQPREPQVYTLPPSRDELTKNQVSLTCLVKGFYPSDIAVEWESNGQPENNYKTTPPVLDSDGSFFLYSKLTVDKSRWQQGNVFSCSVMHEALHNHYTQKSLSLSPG
light: DIVLTQSPLSLAVSLGQPAIISCKASQSVSFAGTSLMHWYHQKPGQQPRLLIYRASNLEAGVPDRFSGSGSKTDFTLTISPVEAEDAATYYCQQSREYPYTFGGGTKLEIKRTVAAPSVFIFPPSDEQLKSGTASVVCLLNNFYPREAKVQWKVDNALQSGNSQESVTEQDSKDSTYSLSSTLTLSKADYEKHKVYACEVTHQGLSSPVTKSFNRGEC
modifications: N-terminal Ser oxidized to an aldehyde and linked through Linker1 to Compound A (sulfonated DGN462); two Compound A molecules per antibody
cytotoxicity on KB cells (WST-8), potency against the lysine-conjugated ADC, by Compound A concentration [2]: ~5 fold | cytotoxicity on KB cells (WST-8), potency against the lysine-conjugated ADC, by antibody concentration [2]: ~3 fold

B4: huCD123-6Rv1.1S2-SeriMab-D8 (antibody, V domains shown)
VH: SFQLVQSGAEVVKPGASVKMSCKASGYTFTSSIMHWMKQKPGQGLEWIGYIKPYNDGTKYNQKFQGKATLTSDKSSSTANMELNSLTSEDSAVYYCAREGGNDYYDTMDYWGQGTSVTVSS
VL: DIQMTQSPSSMSASVGERVTITCRASQDINSYLSWFQQKPGKSPKTLIYRVNRLVDGVPSRFSGSGSGQDYSLTISSLEPEDMGIYYCLQYDAFPYTFGQGTKLEIKR
IC50 of cytotoxicity on HNT-34 cells (WST-8) [3]: ~0.002 nM | IC50 of cytotoxicity on MOLM-1 cells (WST-8) [3]: ~0.03 nM | IC50 of cytotoxicity on SHI-1 cells (WST-8) [3]: ~0.01 nM | loss of cytotoxicity when CD123 is blocked by unconjugated huCD123-6 antibody [3]: 100 fold

Second part, the binder after the results:

binding result [1]: binds
B1: huMOV19-NTS #2 (antibody)
heavy: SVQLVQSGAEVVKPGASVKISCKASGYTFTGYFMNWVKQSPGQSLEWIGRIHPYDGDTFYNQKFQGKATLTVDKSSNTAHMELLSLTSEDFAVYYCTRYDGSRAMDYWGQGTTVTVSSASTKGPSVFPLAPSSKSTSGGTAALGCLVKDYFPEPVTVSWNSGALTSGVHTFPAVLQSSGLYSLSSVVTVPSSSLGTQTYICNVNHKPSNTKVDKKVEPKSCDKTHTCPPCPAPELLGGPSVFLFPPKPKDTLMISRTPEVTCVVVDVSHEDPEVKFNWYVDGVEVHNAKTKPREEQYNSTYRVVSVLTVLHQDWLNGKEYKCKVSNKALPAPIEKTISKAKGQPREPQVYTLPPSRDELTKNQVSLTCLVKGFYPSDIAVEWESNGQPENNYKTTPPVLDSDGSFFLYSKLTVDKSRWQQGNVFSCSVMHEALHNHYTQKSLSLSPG
light: DIVLTQSPLSLAVSLGQPAIISCKASQSVSFAGTSLMHWYHQKPGQQPRLLIYRASNLEAGVPDRFSGSGSKTDFTLTISPVEAEDAATYYCQQSREYPYTFGGGTKLEIKRTVAAPSVFIFPPSDEQLKSGTASVVCLLNNFYPREAKVQWKVDNALQSGNSQESVTEQDSKDSTYSLSSTLTLSKADYEKHKVYACEVTHQGLSSPVTKSFNRGEC
notes: huMOV19 with the heavy chain N-terminal Gln replaced by Ser (huMov19 HC NTS2); also called SeriMab; huMOV19-SeriMab antibody

binding result [1]: binds
B2: huMOV19 (antibody, human IgG1, kappa)
heavy: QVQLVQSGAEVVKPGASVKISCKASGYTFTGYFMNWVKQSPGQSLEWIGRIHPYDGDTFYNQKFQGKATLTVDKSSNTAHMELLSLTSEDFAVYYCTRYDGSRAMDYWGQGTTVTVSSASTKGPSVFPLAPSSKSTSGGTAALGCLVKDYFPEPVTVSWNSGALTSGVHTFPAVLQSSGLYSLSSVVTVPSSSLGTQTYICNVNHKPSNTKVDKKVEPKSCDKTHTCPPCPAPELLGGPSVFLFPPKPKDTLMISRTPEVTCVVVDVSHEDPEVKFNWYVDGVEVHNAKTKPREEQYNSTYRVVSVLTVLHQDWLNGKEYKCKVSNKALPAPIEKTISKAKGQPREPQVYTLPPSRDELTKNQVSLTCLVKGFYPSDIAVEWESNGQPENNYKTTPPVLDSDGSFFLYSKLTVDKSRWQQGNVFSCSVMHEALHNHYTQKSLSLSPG
light: DIVLTQSPLSLAVSLGQPAIISCKASQSVSFAGTSLMHWYHQKPGQQPRLLIYRASNLEAGVPDRFSGSGSKTDFTLTISPVEAEDAATYYCQQSREYPYTFGGGTKLEIKRTVAAPSVFIFPPSDEQLKSGTASVVCLLNNFYPREAKVQWKVDNALQSGNSQESVTEQDSKDSTYSLSSTLTLSKADYEKHKVYACEVTHQGLSSPVTKSFNRGEC
notes: Humanized anti-folate receptor alpha IgG1/kappa; also called M9346A; unconjugated native huMOV19 antibody
